Data as given in patent publication US20150104459A1.
“And” between values parts separate entries of the source, which are not always exact repeats. Equal values may be shown once.

Key:
[1] = biological target: M2 protein of influenza A/Hong Kong/483/97 (H5N1) (influenza A virus A/Hong Kong/483/97 (H5N1)); note: test concentration or dose not given here
[2] = biological target: recombinant homotrimeric HA, A/swine/Ontario/01911-2/99 H4N6 (Influenza A virus A/swine/Ontario/01911-2/99 (H4N6)); experiment: trimeric HA microarray; transfection supernatant set 5
[3] = biological target: recombinant homotrimeric HA, A/California/4/09 H1N1 (Influenza A virus A/California/4/09 (H1N1)); experiment: as above
[4] = biological target: recombinant homotrimeric HA, A/Indonesia/5/05 H5N1 (Influenza A virus A/Indonesia/5/05 (H5N1)); experiment: as above
[5] = biological target: recombinant homotrimeric HA, A/South Carolina/1/18 H1N1 (Influenza A virus A/South Carolina/1/18 (H1N1)); experiment: as above
[6] = biological target: recombinant homotrimeric HA, A/Egypt/3300-NAMRU3/08 H5N1 (Influenza A virus A/Egypt/3300-NAMRU3/08 (H5N1)); experiment: as above
[7] = biological target: recombinant homotrimeric HA, A/Wisconsin/67/05 H3N2 (Influenza A virus A/Wisconsin/67/05 (H3N2)); experiment: as above
[8] = biological target: recombinant homotrimeric HA, A/Japan/305/57 H2N2 (Influenza A virus A/Japan/305/57 (H2N2)); experiment: as above
[9] = biological target: recombinant homotrimeric HA, A/Vietnam/1203/04 H5N1 (Influenza A virus A/Vietnam/1203/04 (H5N1)); experiment: as above
[10] = biological target: recombinant homotrimeric HA, A/Solomon Islands/3/06 H1N1 (Influenza A virus A/Solomon Islands/3/06 (H1N1)); experiment: as above
[11] = biological target: recombinant soluble homotrimeric HA of A/swine/Ontario/01911-2/99 (H4N6) (Influenza A virus A/Swine/Ontario/01911-2/99 (H4N6)); experiment: HA microarray, control mAb
[12] = biological target: recombinant soluble homotrimeric HA of A/duck/Yangzhou/02/2005 (H8N4) (Influenza A virus A/duck/Yangzhou/02/2005 (H8N4)); experiment: HA microarray, control mAb
[13] = biological target: recombinant soluble homotrimeric HA of A/Wisconsin/67/05 (H3N2) (Influenza A virus A/Wisconsin/67/2005 (H3N2)); experiment: HA microarray, control mAb
[14] = biological target: recombinant soluble homotrimeric HA of A/chicken/Vietnam/NCVD-016/08 (H5N1) (Influenza A virus A/chicken/Vietnam/NCVD-016/2008 (H5N1)); experiment: HA microarray, control mAb
[15] = biological target: recombinant soluble homotrimeric HA of A/Japan/305/57 (H2N2) (Influenza A virus A/Japan/305/1957 (H2N2)); experiment: HA microarray, control mAb
[16] = biological target: recombinant soluble homotrimeric HA of A/Hong Kong/2108/03 (H9N2) (Influenza A virus A/Hong Kong/2108/2003 (H9N2)); experiment: HA microarray, control mAb
[17] = biological target: recombinant soluble homotrimeric HA of A/Anhui/1/05 (H5N1) (Influenza A virus A/Anhui/1/2005 (H5N1)); experiment: HA microarray, control mAb
[18] = biological target: recombinant soluble homotrimeric HA of A/Netherlands/219/03 (H7N7) (Influenza A virus A/Netherlands/219/03 (H7N7)); experiment: HA microarray, control mAb
[19] = biological target: recombinant soluble homotrimeric HA of A/Indonesia/5/05 (H5N1) (Influenza A virus A/Indonesia/5/2005 (H5N1)); experiment: HA microarray, control mAb
[20] = biological target: recombinant soluble homotrimeric HA of A/Egypt/3300-NAMRU3/08 (H5N1) (Influenza A virus A/Egypt/3300-NAMRU3/2008 (H5N1)); experiment: HA microarray, control mAb
[21] = biological target: recombinant soluble homotrimeric HA of A/California/4/09 (H1N1) (Influenza A virus A/California/04/2009 (H1N1)); experiment: HA microarray, control mAb
[22] = biological target: recombinant soluble homotrimeric HA of A/Vietnam/1203/04 (H5N1) (Influenza A virus A/Vietnam/1203/2004 (H5N1)); experiment: HA microarray, control mAb
[23] = biological target: recombinant soluble homotrimeric HA of A/northern shoveler/California/HKWF115/2007 (H6N1) (Influenza A virus A/northern shoveler/California/HKWF115/2007 (H6N1)); experiment: HA microarray, control mAb
[24] = biological target: recombinant soluble homotrimeric HA of A/Solomon Islands/3/06 (H1N1) (Influenza A virus A/Solomon Islands/3/2006 (H1N1)); experiment: HA microarray, control mAb
[25] = biological target: hemagglutinin (HA) of live influenza A/Solomon Islands/3/06 (H1N1) virus (influenza A virus A/Solomon Islands/3/2006 (H1N1)); experiment: cell-based or functional assay
[26] = biological target: hemagglutinin (HA) of live influenza A/Wisconsin/67/05 (H3N2) virus (influenza A virus A/Wisconsin/67/2005 (H3N2)); experiment: cell-based or functional assay
[27] = biological target: hemagglutinin (HA) of live influenza A/California/4/09 (H1N1) virus (influenza A virus A/California/04/2009 (H1N1)); experiment: cell-based or functional assay
[28] = biological target: Hemagglutinin of influenza A/Solomon Islands/3/06 (H1N1) on whole virions (Influenza A virus A/Solomon Islands/3/2006(H1N1)); note: test concentration or dose not given here
[29] = biological target: Hemagglutinin of influenza A/Wisconsin/67/05 (H3N2) on whole virions (Influenza A virus A/Wisconsin/67/2005(H3N2)); note: test concentration or dose not given here
[30] = biological target: recombinant soluble homotrimeric HA, A/Hong Kong/1073/99 (H9N2) (influenza A virus A/Hong Kong/1073/99 (H9N2)); experiment: microarray, trimeric HA, transfection supernatant
[31] = biological target: recombinant soluble homotrimeric HA, A/Hong Kong/156/97 (H5N1) (influenza A virus A/Hong Kong/156/97 (H5N1)); experiment: microarray, trimeric HA, transfection supernatant
[32] = biological target: recombinant soluble homotrimeric HA, A/Hong Kong/2108/03 (H9N2) (influenza A virus A/Hong Kong/2108/2003 (H9N2)); experiment: microarray, trimeric HA, transfection supernatant
[33] = biological target: M2 protein of influenza A/Puerto Rico/8/34 (H1N1), on virus particles (influenza A virus A/Puerto Rico/8/34 (H1N1)) (UniProt P06821)
Throughout, for Virus ELISA OD A450: test concentration or dose not given here.

TCN-032 (8I10) (antibody), sequence (VH): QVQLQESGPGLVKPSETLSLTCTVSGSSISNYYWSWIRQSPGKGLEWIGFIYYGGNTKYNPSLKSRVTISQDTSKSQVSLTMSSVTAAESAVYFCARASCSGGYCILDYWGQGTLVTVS
TCN-032 (8I10) (antibody), sequence (VL): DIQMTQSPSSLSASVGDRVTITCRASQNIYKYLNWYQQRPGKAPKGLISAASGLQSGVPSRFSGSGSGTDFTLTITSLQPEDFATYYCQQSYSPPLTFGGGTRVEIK

For TCN-032 (8I10) (antibody), the FACS M2-HK MFI [1] was 754 MFI and 1080 MFI.
In the case of TCN-202 (2N9) (antibody), the Trimeric HA Binding: RLU [2] was 2690 RLU, the Trimeric HA Binding: RLU [3] was 733 RLU and the Trimeric HA Binding: RLU [4] was 1970 RLU. It also gave a Trimeric HA Binding: RLU [5] of 5330 RLU, a Trimeric HA Binding: RLU [6] of 13900 RLU and a Trimeric HA Binding: RLU [7] of 581 RLU. It also gave a Trimeric HA Binding: RLU [8] of 1880 RLU, a Trimeric HA Binding: RLU [9] of 30000 RLU and a Trimeric HA Binding: RLU [10] of 525 RLU. The Trimeric HA Binding RLU [11] was 75 RLU, the Trimeric HA Binding RLU [12] was 196 RLU and the Trimeric HA Binding RLU [13] was 252 RLU. It also gave a Trimeric HA Binding RLU [14] of 69 RLU, a Trimeric HA Binding RLU [15] of 85 RLU and a Trimeric HA Binding RLU [16] of 50 RLU. It also gave a Trimeric HA Binding RLU [17] of 25 RLU, a Trimeric HA Binding RLU [18] of 348 RLU and a Trimeric HA Binding RLU [19] of 24 RLU. It also gave a Trimeric HA Binding RLU [20] of 1280 RLU, a Trimeric HA Binding RLU [21] of 39 RLU and a Trimeric HA Binding RLU [22] of 53 RLU. The Trimeric HA Binding RLU [23] was 105 RLU, the Trimeric HA Binding RLU [24] was 46 RLU and the % Neutralization [25] was 0% and 7%. For the same substance, the % Neutralization [26] was 17.8% and 0%, the % Neutralization [27] was 0% and the OD450 [28] was 0.07 OD450 and 0.08 OD450 and 0.1 OD450. For the same substance, the OD450 [29] was 0.07 OD450 and 0.08 OD450, the Trimeric HA Binding RLU [30] was 57 RLU and 81 RLU and the Trimeric HA Binding RLU [31] was 945 RLU. The Trimeric HA Binding RLU [32] was 30 RLU and 22 RLU.
mAb 2N9 (antibody) was tested, and the Virus ELISA OD A450 [33] was 0.15 OD A450 and 0.05 OD A450 and the FACS M2-HK MFI [1] was 11 MFI and 6 MFI.
